Measurements taken from patent publication US11242370B2, “Neuregulin-4 compounds and methods of use” (Eli Lilly and Company, priority 2019, dated 2022).

Assays:
human HER2/HER4 = target: T1, human HER2/HER4 (Homo sapiens, UniProt Q15303); experiment: Human HER2/HER4 phospho-ERK 1/2 assay, purified proteins, CHO-K1 cells; format: cell-based; details: for % Maximal NRG1 activity: maximal signal relative to native human NRG1 per plate; for EC50: purified proteins, phospho-ERK1/2
T1 construct: expressed in transfected cells
Method: (§1) A cell based assay utilizing CHO-K1 cells overexpressing human or rat HER receptors is used to determine activity of NRG4 compounds. CHO-K1 cells (ATCC) are grown in DMEM-F12 3:1 with 5% FBS with 20 mM HEPES, 40 μg/mL L-Proline, lx antibiotics and were split 1:5 every 2-3 days with TripLE Express (Gibco). Cells are transfected with plasmid DNA encoding HER receptors in pairs (hHER2-3, hHER2-4, rHER2-3 and rHER2-4) with Fugene 6 (Promega) according to the manufacturer's instructions. […] Transfected cells are selected with Puromycin (12 ug/ml) and Hygromycin (1 mg/ml) for 3-4 weeks and clonal lines are obtained by limited dilution cloning into 96 well plates. Clonal lines are selected by appropriate gene expression of HER2, HER3 or HER4 by Taqman method. Lines with appropriate receptor expression are confirmed by NRG1 induced phospho-ERK 1/2 responses. Clones are grown up, harvested, aliquoted into cryovials and then frozen under liquid nitrogen for long-term storage.
(§2) A phospho-ERK1/2 activity assay is utilized with CHO-K1 cells overexpressing human or rat HER receptors to determine potencies and selectivity of purified NRG4 compounds. CHO-K1 cell lines expressing the human or rat HER receptors are cultured with selection medium (DMEM-F12 3:1 with 5% FBS with 20 mM HEPES, 40 μg/mL L-Proline, 1× antibiotics, 12 μg/mL puromycin, 1 mg/mL Hygromycin B). On Day −1 (the day before phospho-ERK1/2 assay), cells are washed once with PBS, detached with enzyme free cell dissociation solution (GIBCO cat #13151-014), and resuspended in plating medium (DMEM-F12 3:1 with 20 mM HEPES, lx antibiotics, 0.2% FBS). Cells are plated in a 96-well Poly-D-Lysine coated plate (BD cat #354640) at 10,000 cells per 0.1 mL per well. Cells are cultured in a tissue culture incubator at 37° C. 5% CO2 overnight. On Day 1 (the day of pERK1/2 assay), plates are incubated at room temperature for 30 min. The culture media are removed followed by addition of 504, ligand at various concentrations diluted in PBS-20 mM HEPES-0.005% BSA. Native human NRG1 and NRG4 peptides are purchased from Reprokine (Tampa, Fla.). The stimulation time is 30 min (except for hHER2-4 1H6 line in which 15 min is used for stimulation). At the end of stimulation, ligands are removed and 704, Lysis buffer (made according to manufacturer's recipe, Perkin Elmer cat #ALSU-PERK-A10K) is added. Plates are incubated at room temperature for 10 min on plate shaker with 350 rpm agitation, then on ice for 1 hour without shaking. 304, of cell lysis is transferred to a 96-well white Optiplate (Perkin Elmer cat #6002290) for phospho-ERK1/2 assay. Briefly 7.5 μL acceptor beads are added to 30 μL lysis in Optiplate. The plate is covered with aluminum foil and incubated at room temperature for 1 hour on plate shaker with 350 rpm agitation. Then 7.5 μL donor beads are added and the plate is covered with aluminum foil and incubated at room temperature for 2 hours on plate shaker with 350 rpm agitation or at 4° C. for overnight (warm up plate at room temperature for 2 h before reading). Alpha signal data are obtained on an Envision instrument (Alpha Technology-compatible plate reader). Donor beads and acceptor beads are made according to assay protocol. The data shown are generated with either the AlphaScreen SureFire p-ERK1/2 (Thr202/Tyr204) assay kit (Cat #TGRES50k) or the AlphaLISA® SureFire® Ultra™ p-ERK 1/2 (Thr202/Tyr204) assay kit (Perkin Elmer cat #ALSU-PERK-A10K). The activity of the NRG1 peptide was similar in both types of assays. Raw data obtained from the Envision instrument is imported into GraphPad Prism software (version 7). The EC50 value is generated by a variable slope-four parameter dose response curve. The % of maximal NRG1 activity data are generated by expressing the average maximal raw data for the NRG4 compound over the average maximal raw data for the native human NRG1 per plate and multiplying by 100. Data are provided below in Tables 7-9. N values reflect number of independent assays run. […]

human HER2/HER3 = target: T2, human HER2/HER3 (Homo sapiens, UniProt P21860); experiment: Human HER2/HER3 phospho-ERK 1/2 assay, purified proteins, CHO-K1 cells; format: cell-based; details: for EC50: purified proteins, phospho-ERK1/2
T2 construct: expressed in transfected cells
Method: as §1
as §2, with “assays.” for “assays. Raw data obtained from the Envision instrument is imported into GraphPad Prism software (version 7). The EC50 value is generated by a variable slope-four parameter dose response curve. The % of maximal NRG1 activity data are generated by expressing the average maximal raw data for the NRG4 compound over the average maximal raw data for the native human NRG1 per plate and multiplying by 100. Data are provided below in Tables 7-9. N values reflect number of independent assays run.”

| Molecule | % Maximal NRG1 activity (human HER2/HER4) | EC50 (human HER2/HER4) | EC50 (human HER2/HER3) | phospho-ERK1/2 activity at the human HER3 HER2 receptors (human HER2/HER3; statement in text on Table 9) |
| --- | --- | --- | --- | --- |
| WT NRG1: wild type human NRG1; native peptide purchased from Reprokine in Tables 7-9; comparator in the screening assays of Tables 4 and 6 | 100% | 0.67 ± 0.07 nM | 0.83 ± 0.2 nM |  |
| WT NRG4: wild type human NRG4 (SEQ ID NO:1); parental hFcNRG4 in screening (Tables 4-6), native peptide from Reprokine in Tables 7-9 (DHEEPCGPSHKSFCLNGGLCYVIPTIPSPFCRCVENYTGARCEEVFL; listed as Homo sapiens) | 75 ± 4 (N = 8) % | 90.1 ± 33.2 nM | > 1000 nM | no activity |
| Example 10: NRG4 D1G/V22Q/E44K, (GGGGS)3 linker, SEQ ID NO: 19, fused to IgG Fc dimer SEQ ID NO: 6 and 7 (protein) chain 1: GGGGSGGGGSGGGGSGHEEPCGPSHKSFCLNGGLCYQIPTIPSPFCRCVENYTGARCEKVFL chain 2: ECPPCPAPPVAGPSVFLFPPKPKDTLMISRTPEVTCVVVDVSHEDPEVQFNWYVDGVEVHNAKTKPREEQFNSTFRVVSVLTVVHQDWLNGKEYKCKVSNKGLPAPIEKTISKTKGQPREPQVYTLPPSREEMTKNQVSLWCLVKGFYPSDIAVEWESNGQPENNYKTTPPVLDSDGSFFLYSKLTVDKSRWQQGNVFSCSVMHEALHNHYTQKSLSLSPG chain 3: ECPPCPAPPVAGPSVFLFPPKPKDTLMISRTPEVTCVVVDVSHEDPEVQFNWYVDGVEVHNAKTKPREEQFNSTFRVVSVLTVVHQDWLNGKEYKCKVSNKGLPAPIEKTISKTKGQPREPQVYTLPPSREEMTKNQVSLSCAVKGFYPSDIAVEWESNGQPENNYKTTPPVLDSDGSFFLVSKLTVDKSRWQQGNVFSCSVMHEALHNHYTQKSLSLSPG | 82 ± 4 (N = 8) % | 0.16 ± 0.02 nM | > 1000 nM |  |
